From patent publication US20230241168A1 (ALPINE IMMUNE SCIENCES, published 2023)

What was measured:
recombinant human BAFF = recombinant human BAFF (human, UniProt Q9Y275 134-285); test: cell-based or functional assay
recombinant human APRIL = biological target: T1, recombinant human APRIL (human, UniProt O75888 105-250, limits assumed); test: cell-based or functional assay
T1 sequence (looked up): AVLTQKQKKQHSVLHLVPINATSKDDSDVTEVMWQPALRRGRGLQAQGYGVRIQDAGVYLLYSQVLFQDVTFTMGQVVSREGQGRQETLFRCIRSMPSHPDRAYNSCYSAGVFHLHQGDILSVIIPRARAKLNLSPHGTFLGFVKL

B1: TACI 516 (EAAAK)6 CTLA 4 668 (other)
chain: VAMRSCPEEQYWDPLLGTCMSCKTICNHQSQRTCAAFCRSLSCRKEQGKFYDHLLRDCISCASICGQHPKQCAYFCENKLRSEAAAKEAAAKEAAAKEAAAKEAAAKEAAAKKAMHVAQPAVVLASSRGIASFVCEYASPGKATEVRVTVLRQADSQVTEVCAATYMMGNELTFLDDSICTGTSSGNQVNLTIQGLRAMDTGLYICKVELMYPPPYYLGIGNGTQIYVIDPEPSPDSDQDYKDDDDKHHHHHH
Recombinant human BAFF
  IC50 (nM) BAFF: 3.42 nM
  IC50 BAFF (Δ Parental vTD): 1.3 ratio
Recombinant human APRIL
  IC50 (nM) APRIL: 138 nM
  IC50 APRIL (Δ Parental vTD): 15 ratio

B2: TACI 528 (EAAAK)6 CTLA 4 668 (other)
chain: SLSCRKEQGKFYDHLLRDCISCASICGQHPKQCAYFCENKLRSEAAAKEAAAKEAAAKEAAAKEAAAKEAAAKKAMHVAQPAVVLASSRGIASFVCEYASPGKATEVRVTVLRQADSQVTEVCAATYMMGNELTFLDDSICTGTSSGNQVNLTIQGLRAMDTGLYICKVELMYPPPYYLGIGNGTQIYVIDPEPSPDSDQDYKDDDDKHHHHHH
Recombinant human BAFF
  IC50 (nM) BAFF: 5.18 nM
  IC50 BAFF (Δ Parental vTD): 2 ratio

B3: TACI 516 (G4S)3 CTLA 4 668 (other)
chain: VAMRSCPEEQYWDPLLGTCMSCKTICNHQSQRTCAAFCRSLSCRKEQGKFYDHLLRDCISCASICGQHPKQCAYFCENKLRSGGGGSGGGGSGGGGSKAMHVAQPAVVLASSRGIASFVCEYASPGKATEVRVTVLRQADSQVTEVCAATYMMGNELTFLDDSICTGTSSGNQVNLTIQGLRAMDTGLYICKVELMYPPPYYLGIGNGTQIYVIDPEPSPDSDQDYKDDDDKHHHHHH
Recombinant human BAFF
  IC50 (nM) BAFF: 8.75 nM
  IC50 BAFF (Δ Parental vTD): 3.4 ratio

B4: TACI 528 (G4S)3 CTLA 4 668 (other)
chain: SLSCRKEQGKFYDHLLRDCISCASICGQHPKQCAYFCENKLRSGGGGSGGGGSGGGGSKAMHVAQPAVVLASSRGIASFVCEYASPGKATEVRVTVLRQADSQVTEVCAATYMMGNELTFLDDSICTGTSSGNQVNLTIQGLRAMDTGLYICKVELMYPPPYYLGIGNGTQIYVIDPEPSPDSDQDYKDDDDKHHHHHH
Recombinant human BAFF
  IC50 (nM) BAFF: 8.41 nM
  IC50 BAFF (Δ Parental vTD): 3.3 ratio

B5: CTLA-4 165 GSG4S Fc (G4S)2 BCMA 356 (Fc fusion)
chain: KAMHVAQPAVVLASSRGIASFVCEYASPGKATEVRVTVLRQADSQVTEVCAASYMMGNELTFPDDSICTGTSSGNQVNLTIQGLRAMDTGLYICKVEQMYPPPYYLGIGNGTQIYVIDPEPCPDSDGSGGGGSEPKSSDKTHTCPPCPAPEAEGAPSVFLFPPKPKDTLMISRTPEVTCVVVDVSHEDPEVKFNWYVDGVEVHNAKTKPREEQYNSTYRVVSVLTVLHQDWLNGKEYKCKVSNKALPAPIEKTISKAKGQPREPQVYTLPPSRDELTKNQVSLTCLVKGFYPSDIAVEWESNGQPENNYKTTPPVLDSDGSFFLYSKLTVDKSRWQQGNVFSCSVMHEALHNHYTQKSLSLSPGGGGGSGGGGSLQMAGQCSQNEYFDSLLHACIPCQLRCSSNTPPLTCQRYCNASVTNSVKGTNA
Recombinant human BAFF
  IC50 (nM) BAFF: 36.8 nM
  IC50 BAFF (Δ Parental vTD): 0.9 ratio
Recombinant human APRIL
  IC50 (nM) APRIL: 0.894 nM
  IC50 APRIL (Δ Parental vTD): 0 ratio

B6: CTLA-4 92 GSG4S Fc (G4S)2 BCMA 356 (Fc fusion)
chain: KAMHVAQPAVVLASSRGIASFVCEYASPWKATEVRVTVLRQADSQVTEVCAATYMMGSELTFPDDSICTGTSSGNQVNLTIRGLRAMDTGLYICKVEQMYPPPYLLGIGNGTQIYVIDPEPCPDSDGSGGGGSEPKSSDKTHTCPPCPAPEAEGAPSVFLFPPKPKDTLMISRTPEVTCVVVDVSHEDPEVKFNWYVDGVEVHNAKTKPREEQYNSTYRVVSVLTVLHQDWLNGKEYKCKVSNKALPAPIEKTISKAKGQPREPQVYTLPPSRDELTKNQVSLTCLVKGFYPSDIAVEWESNGQPENNYKTTPPVLDSDGSFFLYSKLTVDKSRWQQGNVFSCSVMHEALHNHYTQKSLSLSPGGGGGSGGGGSLQMAGQCSQNEYFDSLLHACIPCQLRCSSNTPPLTCQRYCNASVTNSVKGTNA
Recombinant human BAFF
  IC50 (nM) BAFF: 33.5 nM
  IC50 BAFF (Δ Parental vTD): 0.8 ratio
Recombinant human APRIL
  IC50 (nM) APRIL: 0.809 nM
  IC50 APRIL (Δ Parental vTD): 0 ratio

B7: Fc (G4S)2 BCMA (356) (Fc fusion)
chain: EPKSSDKTHTCPPCPAPEAEGAPSVFLFPPKPKDTLMISRTPEVTCVVVDVSHEDPEVKFNWYVDGVEVHNAKTKPREEQYNSTYRVVSVLTVLHQDWLNGKEYKCKVSNKALPAPIEKTISKAKGQPREPQVYTLPPSRDELTKNQVSLTCLVKGFYPSDIAVEWESNGQPENNYKTTPPVLDSDGSFFLYSKLTVDKSRWQQGNVFSCSVMHEALHNHYTQKSLSLSPGGGGGSGGGGSLQMAGQCSQNEYFDSLLHACIPCQLRCSSNTPPLTCQRYCNASVTNSVKGTNA
Recombinant human BAFF
  IC50 (nM) BAFF: 42.7 nM
  IC50 BAFF (Δ Parental vTD): 1 ratio
Recombinant human APRIL
  IC50 (nM) APRIL: 42.7 nM
  IC50 APRIL (Δ Parental vTD): 1 ratio

B8: CTLA-4 165 GSG4S Fc (G4S)2 BCMA 357 (Fc fusion)
chain: KAMHVAQPAVVLASSRGIASFVCEYASPGKATEVRVTVLRQADSQVTEVCAASYMMGNELTFPDDSICTGTSSGNQVNLTIQGLRAMDTGLYICKVEQMYPPPYYLGIGNGTQIYVIDPEPCPDSDGSGGGGSEPKSSDKTHTCPPCPAPEAEGAPSVFLFPPKPKDTLMISRTPEVTCVVVDVSHEDPEVKFNWYVDGVEVHNAKTKPREEQYNSTYRVVSVLTVLHQDWLNGKEYKCKVSNKALPAPIEKTISKAKGQPREPQVYTLPPSRDELTKNQVSLTCLVKGFYPSDIAVEWESNGQPENNYKTTPPVLDSDGSFFLYSKLTVDKSRWQQGNVFSCSVMHEALHNHYTQKSLSLSPGGGGGSGGGGSLQMAGQCSQNEYFDSLLYACIPCQLRCSSNTPPLTCQRYCNASVTNSVKGTNA
Recombinant human BAFF
  IC50 (nM) BAFF: 11.8 nM
  IC50 BAFF (Δ Parental vTD): 2.2 ratio
Recombinant human APRIL
  IC50 (nM) APRIL: 0.606 nM
  IC50 APRIL (Δ Parental vTD): 0.9 ratio

B9: Fc (G4S)2 BCMA (357) (Fc fusion)
chain: EPKSSDKTHTCPPCPAPEAEGAPSVFLFPPKPKDTLMISRTPEVTCVVVDVSHEDPEVKFNWYVDGVEVHNAKTKPREEQYNSTYRVVSVLTVLHQDWLNGKEYKCKVSNKALPAPIEKTISKAKGQPREPQVYTLPPSRDELTKNQVSLTCLVKGFYPSDIAVEWESNGQPENNYKTTPPVLDSDGSFFLYSKLTVDKSRWQQGNVFSCSVMHEALHNHYTQKSLSLSPGGGGGSGGGGSLQMAGQCSQNEYFDSLLYACIPCQLRCSSNTPPLTCQRYCNASVTNSVKGTNA
Recombinant human BAFF
  IC50 (nM) BAFF: 5.44 nM
  IC50 BAFF (Δ Parental vTD): 1 ratio
Recombinant human APRIL
  IC50 (nM) APRIL: 0.696 nM
  IC50 APRIL (Δ Parental vTD): 1 ratio

B10: CTLA 4 165 GSG4S Fc (G4S)2 TACI 516 (Fc fusion)
chain: KAMHVAQPAVVLASSRGIASFVCEYASPGKATEVRVTVLRQADSQVTEVCAASYMMGNELTFPDDSICTGTSSGNQVNLTIQGLRAMDTGLYICKVEQMYPPPYYLGIGNGTQIYVIDPEPCPDSDGSGGGGSEPKSSDKTHTCPPCPAPEAEGAPSVFLFPPKPKDTLMISRTPEVTCVVVDVSHEDPEVKFNWYVDGVEVHNAKTKPREEQYNSTYRVVSVLTVLHQDWLNGKEYKCKVSNKALPAPIEKTISKAKGQPREPQVYTLPPSRDELTKNQVSLTCLVKGFYPSDIAVEWESNGQPENNYKTTPPVLDSDGSFFLYSKLTVDKSRWQQGNVFSCSVMHEALHNHYTQKSLSLSPGGGGGSGGGGSVAMRSCPEEQYWDPLLGTCMSCKTICNHQSQRTCAAFCRSLSCRKEQGKFYDHLLRDCISCASICGQHPKQCAYFCENKLRS
Recombinant human BAFF
  IC50 (nM) BAFF: 0.928 nM
  IC50 BAFF (Δ Parental vTD): 0.5 ratio
Recombinant human APRIL
  IC50 (nM) APRIL: 4.64 nM
  IC50 APRIL (Δ Parental vTD): 0.9 ratio
